Source: the supplement of paper PMC10126150
± gives the standard deviation of the averaged measurements.

System: ATP
Assay: switch fluorescence ratio, 500 uM ATP over buffer (Cy3 cluster intensity, sum of 5 cycles each) (fold (ratio)); higher = stronger signal-on switching upon ATP binding; sequences stand for … in TCGTCGGCAGCGTCAGATGTGTATAAGAGACAGTTTTTTTTTTTTTTTTTTTTTTTTT…TC
Details: aptamer strand: ATP DNA aptamer (quencher-CACCTGGGGGAGTATTGCGGAGGAAGG + anchor), 100 nM annealed; ATP concentration: 500 uM
How it was run: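 Five buffer/ATP imaging cycles were run on Cy3-labelled switching-strand clusters on a modified Illumina MiSeq flow-cell, with NaOH stripping and re-annealing between cycles. In each cycle, clusters annealed to 100 nM quencher-labelled ATP aptamer were imaged in selection buffer, then after 15 min with 500 uM ATP at 22 °C. Per cluster, the fluorescence ratio is summed target-cycle over summed buffer-cycle Cy3 intensity, averaged per switch-domain sequence. Only clusters within 100-1000 RFU were kept.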
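Further: ATP exposure 15 min at 22 °C before imaging.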

Row | Sequence | switch fluorescence ratio
1 | CGGGTCAGTG | 0.968 ± 0.04
2 | TTATATCCTG | 0.974 ± 0.038
3 | TTAGGGACGT | 1.01 ± 0.026
4 | AATATCCGTA | 1.01 ± 0.033
5 | GAAAGCGGCT | 1.032 ± 0.0089
6 | GACCGAGGGG | 0.989 ± 0.026
7 | TTTGGGGTCG | 0.992 ± 0.034
8 | TGGGTGCAAA | 1.01 ± 0.033
9 | GATGAAATTG | 0.953 ± 0.045
10 | CAGTGGATCG | 1.008 ± 0.0011
11 | AATTGGGCCT | 1.034 ± 0.003
12 | ATGCTCGCGG | 0.983 ± 0.038
13 | TTTTTCGTCA | 1.037 ± 0.0074
14 | ACAAACTGCA | 1.17 ± 0.067
15 | CGCCATGGGT | 0.9915 ± 0.0027
16 | ATCGATGAAT | 0.995 ± 0.015
17 | TATTGCTTTC | 1.03 ± 0.018
18 | GGGGGGAGCC | 0.996 ± 0.015
19 | GCTGACAGCG | 0.959 ± 0.017
20 | GCGATGCCTG | 0.973 ± 0.071
21 | TCTCGGGATT | 1 ± 0.013
22 | TAGAAACCCG | 1.04 ± 0.024
23 | AGACGGAGGG | 1.015 ± 0.0017

Row | Sequence | switch fluorescence ratio
24 | CCGACGTAGG | 2.494 ± 0.017
25 | GCGGCTTGTG | 0.9988 ± 0.0089
26 | GGAGCTTTCA | 1.05 ± 0.088
27 | ATTAGGGAGC | 0.989 ± 0.011
28 | CTCGGGGGAT | 1.05 ± 0.1
29 | AATGTTCAGG | 0.995 ± 0.021
30 | TATTTATACA | 1.029 ± 0.0054
31 | GGGCTTGGGG | 0.999 ± 0.031
32 | AAAAATGGGT | 1 ± 0.016
33 | CGCACCACGA | 1.208 ± 0.0072
34 | AGTACATAGT | 0.99 ± 0.024
35 | CGGGTGACGG | 1.05 ± 0.057
36 | TGGTGAGGCT | 0.9694 ± 0.0037
37 | CGGGAAAAGA | 1.58 ± 0.99
38 | AAAACAAATA | 0.9968 ± 0.0089
39 | TGGGACGCCG | 1.01 ± 0.015
40 | AGACGGGAAC | 1 ± 0.022
41 | CGGTTGAGTT | 1.02 ± 0.04
42 | TTCGGGTGCC | 1.03 ± 0.057
43 | CGCCGGAGGA | 0.9697 ± 0.0067
44 | CGGGAGCCCA | 1.02 ± 0.044
45 | AGAAGAATTG | 1.04 ± 0.048
46 | CTTTGAGCGA | 1.11 ± 0.032

Row | Sequence | switch fluorescence ratio
47 | TTGTTGCGTT | 0.986 ± 0.025
48 | AAAGACGTTT | 1 ± 0.016
49 | GGTTATATAG | 1.01 ± 0.016
50 | GTTATATGAC | 0.999 ± 0.012
51 | AGGGGGATCT | 1.03 ± 0.04
52 | AATGTTTCTG | 0.998 ± 0.038
53 | ATTAAAGGTT | 0.99 ± 0.022
54 | TTCATCGGGT | 1.01 ± 0.014
55 | CGAGGGGGCT | 0.99 ± 0.02
56 | GTATGACAGT | 1.02 ± 0.032
57 | GGTAGGTGGG | 1.01 ± 0.055
58 | GGGGTTGTGT | 0.996 ± 0.026
59 | CACTTAGGTG | 1.19 ± 0.032
60 | TCGAGAATGT | 0.984 ± 0.014
61 | TTGGGTCCAA | 0.983 ± 0.017
62 | ACATGAAGAT | 1.031 ± 0.0025
63 | ATGGGGAGGC | 1.05 ± 0.051
64 | TTGTTTATGG | 0.983 ± 0.015
65 | TCTGGGGGAC | 1.05 ± 0.015
66 | TTGTTAGGGT | 0.958 ± 0.011
67 | CAGGACTGCA | 1.028 ± 0.0039
68 | AGCATTACGT | 2.02 ± 0.089
69 | AAGGGAAGT | 1.02 ± 0.034

Row | Sequence | switch fluorescence ratio
70 | GGGAGTAGGC | 0.731 ± 0.022
71 | TATGGGTTTG | 0.994 ± 0.04
72 | GGGGGTCATG | 1.02 ± 0.073
73 | ATTAAGGGGA | 1.04 ± 0.049
74 | GGGTTCATGT | 1.006 ± 0.0027
75 | GCCCACCGAT | 1.06 ± 0.031
76 | GTTAGTAAGG | 1.01 ± 0.041
77 | TTGACGAGGT | 1.07 ± 0.078
78 | CCTGCGGGGA | 1.31 ± 0.29
79 | GATGGGGCAC | 1.01 ± 0.013
80 | ATGAGGAGGT | 0.979 ± 0.0036
81 | TTAGAGGGTT | 1.01 ± 0.031
82 | TAGTCGCGTC | 1.004 ± 0.0066
83 | TCGTTACAGG | 1.045 ± 0.0051
84 | CCATCGTAAT | 4.84 ± 1.1
85 | TATGCCGGGG | 0.988 ± 0.057
86 | GGGTGGCACA | 1 ± 0.0046
87 | ATGCTGGGAC | 1.01 ± 0.024
88 | GAGGCCGGAA | 1.07 ± 0.016
89 | ATGGTAGTGC | 0.986 ± 0.016
90 | ATAGCATTAT | 1.14 ± 0.026
91 | ATTTTAGATC | 1.01 ± 0.034
92 | TAACGTTTAT | 1.01 ± 0.032

Row | Sequence | switch fluorescence ratio
93 | CTAGTCAGGT | 1.018 ± 0.0012
94 | CTGTCTCAAG | 0.97 ± 0.059
95 | AGTTTAGGGG | 0.9796 ± 0.0016
96 | TGGGGAATTT | 0.987 ± 0.023
97 | GCCAGACGTG | 0.995 ± 0.017
98 | CGGAAGGTAG | 0.962 ± 0.015
99 | CGCCCGGTAA | 1.13 ± 0.043
100 | AGTTCGGCGT | 0.999 ± 0.029
101 | GTGTATCACG | 1.015 ± 0.0048
102 | CGTTAGATTG | 0.998 ± 0.051
103 | GATGGGCTAA | 1.04 ± 0.022
104 | GCGTAATCTT | 0.988 ± 0.035
105 | AGGTGGGTCT | 0.991 ± 0.011
106 | TTTGTATGGA | 0.973 ± 0.011
107 | TTGACTAAGG | 1.01 ± 0.044
108 | AGCTGACAGT | 0.981 ± 0.0044
109 | AGGTATTGCG | 0.994 ± 0.044
110 | TAAGAGGGGA | 1.01 ± 0.027
111 | CGGAAAAAGG | 0.992 ± 0.034
112 | GGTGGTACGT | 0.999 ± 0.022
113 | TGTGGGCGGA | 1.001 ± 0.0079
114 | TAGAGTAGTG | 0.999 ± 0.05
115 | CTTTTTGGAC | 0.994 ± 0.071

Row | Sequence | switch fluorescence ratio
116 | TTGTTTTTCC | 1.03 ± 0.057
117 | AAAGGCGTGG | 0.9555 ± 0.0064
118 | TTAGTTGAGA | 1 ± 0.045
119 | TTGGGGATGC | 1.33 ± 0.23
120 | ATGGAATGGG | 0.959 ± 0.01
121 | GGGGGAAGAT | 1.01 ± 0.074
122 | TGTAATTTTC | 1.05 ± 0.12
123 | ATTTAATTTT | 1.02 ± 0.019
124 | CCGTATAATG | 0.98 ± 0.034
125 | GGCGTCAGGA | 1.01 ± 0.027
126 | GGTTAGATGT | 0.9766 ± 0.0075
127 | TGGGAGGTTA | 0.965 ± 0.025
128 | TGGGTAAAGT | 0.971 ± 0.019
129 | TTCTCAGCAA | 2.43 ± 0.64
130 | GTTGTACGAT | 0.9971 ± 0.003
131 | TGTAACTTGC | 1.077 ± 0.0036
132 | GTGCTGGATT | 1.02 ± 0.018
133 | TACGTGTTTT | 1 ± 0.0081
134 | GGGTCCGGTC | 1.0075 ± 7.9e-05
135 | AAGTACGTTC | 1.25 ± 0.035
136 | TGCTGGATTT | 0.991 ± 0.016
137 | GGGAGGGCTT | 1.05 ± 0.092
138 | CATACCGGGG | 1.025 ± 0.0049

Row | Sequence | switch fluorescence ratio
139 | CGAGTGTGGG | 1.01 ± 0.021
140 | TGTTGCAGTT | 1.03 ± 0.02
141 | TAGTAGTTTT | 1.01 ± 0.052
142 | GGTTTTAATG | 0.988 ± 0.031
143 | ATGGCGAGGT | 1.01 ± 0.059
144 | TATGGCCGCC | 1.01 ± 0.043
145 | TAATGAGGTG | 1.04 ± 0.023
146 | GGGGGCGCGG | 0.996 ± 0.015
147 | ATGGATGCCT | 1.01 ± 0.051
148 | CAACATTTTC | 1.03 ± 0.054
149 | GACTAGTTGG | 0.983 ± 0.025
150 | TGGGGGGAAG | 0.994 ± 0.018
151 | AGAAAGTTGA | 1.024 ± 0.01
152 | CATTTATGCC | 1.17 ± 0.31
153 | GTGGACTTAA | 0.9953 ± 0.0046
154 | GGACTTTCGT | 0.993 ± 0.015
155 | GACATAGTGG | 1.006 ± 0.0012
156 | TCTGGGTGGC | 0.996 ± 0.028
157 | GAACACTTCT | 1.05 ± 0.014
